Laboratory results published in the supplement of paper PMC9112550, “Optimization of the antimicrobial peptide Bac7 by deep mutational scanning” (BMC Biology, 2022).

What follows are sequences tested on Escherichia coli TOP10 (assay: shrunken log2 fold change of peptide-encoding DNA abundance (4.5 h post-induction vs induction); higher = less antimicrobial activity (less host growth inhibition)). Settings: time post-induction: 4.5 h; library: site-saturation at positions 5, 18, 19, 20.
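Further: peptides expressed intracellularly from a pBAD plasmid library in pooled LB shake-flask culture, induced with 0.3% L-arabinose, DNA abundance read by NGS, three biological replicates, DESeq2 with apeglm shrinkage.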

RRIRPRPPRLPRPRPRPTVRPRP and RRIRMRPPRLPRPRPRPTVYPRP are within 0.2 log units of each other in “shrunken log2 fold change” value: 0.0204 for the first, -0.0666 for the second.

RRIRVRPPRLPRPRPRPQSDPRP and RRIRSRPPRLPRPRPRPIMGPRP are within 0.2 log units of each other in “shrunken log2 fold change” value: -0.0819 for the first, -0.0258 for the second.

RRIRKRPPRLPRPRPRPCYHPRP and RRIRFRPPRLPRPRPRPHKFPRP are within 0.2 log units of each other in “shrunken log2 fold change” value: -0.339 for the first, -0.5 for the second.

First: RRIRSRPPRLPRPRPRPNGAPRP
Second: RRIRPRPPRLPRPRPRPLQDPRP
The “shrunken log2 fold change” value of the first is lower: -0.299 for the first, 0.151 for the second.

Compared with RRIRMRPPRLPRPRPRPFVFPRP, RRIRPRPPRLPRPRPRPFFWPRP is higher in “shrunken log2 fold change” value: 0.0629 for the first, 0.559 for the second.

RRIRMRPPRLPRPRPRPNMCPRP and RRIRHRPPRLPRPRPRPSDNPRP are within 0.2 log units of each other in “shrunken log2 fold change” value: 0.0492 for the first, 0.129 for the second.

RRIRWRPPRLPRPRPRPRHEPRP and RRIRCRPPRLPRPRPRPGPHPRP are within 0.2 log units of each other in “shrunken log2 fold change” value: -0.0681 for the first, 0.0758 for the second.

First: RRIRTRPPRLPRPRPRPTKNPRP
Second: RRIRMRPPRLPRPRPRPSYNPRP
The “shrunken log2 fold change” value of the first is higher: -0.083 for the first, -0.808 for the second.

First: RRIRTRPPRLPRPRPRPRFCPRP
Second: RRIRTRPPRLPRPRPRPNSPPRP
The “shrunken log2 fold change” value of the first is higher: 0.443 for the first, -0.221 for the second.

Going from RRIRGRPPRLPRPRPRPYYTPRP to RRIRDRPPRLPRPRPRPWHAPRP, the “shrunken log2 fold change” value falls from 1.19 to -0.134.

Going from RRIRTRPPRLPRPRPRPAKHPRP to RRIRIRPPRLPRPRPRPDTAPRP, the “shrunken log2 fold change” value falls from 0.0349 to -0.232.

RRIRYRPPRLPRPRPRPPWVPRP and RRIRRRPPRLPRPRPRPHMWPRP are within 0.2 log units of each other in “shrunken log2 fold change” value: -0.209 for the first, -0.0704 for the second.

First: RRIRWRPPRLPRPRPRPYRRPRP
Second: RRIRMRPPRLPRPRPRPMAPPRP
The “shrunken log2 fold change” value of the first is lower: -0.0183 for the first, 0.218 for the second.

Compared with RRIRCRPPRLPRPRPRPRFRPRP, RRIRDRPPRLPRPRPRPPCCPRP is lower in “shrunken log2 fold change” value: 0.201 for the first, -0.124 for the second.

First: RRIRDRPPRLPRPRPRPMWPPRP
Second: RRIRHRPPRLPRPRPRPWFLPRP
The “shrunken log2 fold change” value of the first is higher: 0.316 for the first, -0.315 for the second.

RRIRLRPPRLPRPRPRPRWCPRP and RRIRSRPPRLPRPRPRPMTGPRP are within 0.2 log units of each other in “shrunken log2 fold change” value: -0.0806 for the first, 0.00381 for the second.

Compared with RRIRPRPPRLPRPRPRPWKDPRP, RRIRQRPPRLPRPRPRPMFTPRP is lower in “shrunken log2 fold change” value: -0.0368 for the first, -0.31 for the second.

RRIRTRPPRLPRPRPRPMSHPRP and RRIRYRPPRLPRPRPRPMNKPRP are within 0.2 log units of each other in “shrunken log2 fold change” value: -0.238 for the first, -0.187 for the second.

Compared with RRIRGRPPRLPRPRPRPQKRPRP, RRIRCRPPRLPRPRPRPSELPRP is lower in “shrunken log2 fold change” value: 0.662 for the first, -0.107 for the second.

First: RRIRKRPPRLPRPRPRPHATPRP
Second: RRIRFRPPRLPRPRPRPEFTPRP
The “shrunken log2 fold change” value of the first is lower: 1.06 for the first, 1.75 for the second.

RRIRYRPPRLPRPRPRPASFPRP and RRIRERPPRLPRPRPRPRWKPRP are within 0.2 log units of each other in “shrunken log2 fold change” value: -0.138 for the first, -0.0289 for the second.

Going from RRIRSRPPRLPRPRPRPVDEPRP to RRIRRRPPRLPRPRPRPARWPRP, the “shrunken log2 fold change” value rises from -0.216 to 1.13.

RRIRKRPPRLPRPRPRPWGGPRP and RRIRGRPPRLPRPRPRPQYAPRP are within 0.2 log units of each other in “shrunken log2 fold change” value: 0.407 for the first, 0.285 for the second.

RRIRQRPPRLPRPRPRPDRSPRP and RRIRDRPPRLPRPRPRPAHYPRP are within 0.2 log units of each other in “shrunken log2 fold change” value: 0.0153 for the first, 0.0963 for the second.

First: RRIRCRPPRLPRPRPRPRPGPRP
Second: RRIRRRPPRLPRPRPRPRGTPRP
The “shrunken log2 fold change” value of the first is higher: 0.733 for the first, 0.216 for the second.

First: RRIRQRPPRLPRPRPRPQGIPRP
Second: RRIRVRPPRLPRPRPRPMQIPRP
The “shrunken log2 fold change” value of the first is lower: -0.602 for the first, -0.0185 for the second.

First: RRIRVRPPRLPRPRPRPFARPRP
Second: RRIRWRPPRLPRPRPRPDSHPRP
The “shrunken log2 fold change” value of the first is higher: 0.206 for the first, -0.126 for the second.

RRIRQRPPRLPRPRPRPFPTPRP and RRIRSRPPRLPRPRPRPHCCPRP are within 0.2 log units of each other in “shrunken log2 fold change” value: -0.0177 for the first, 0.022 for the second.

First: RRIRERPPRLPRPRPRPKKTPRP
Second: RRIRLRPPRLPRPRPRPCFCPRP
The “shrunken log2 fold change” value of the first is higher: -0.0747 for the first, -0.279 for the second.

First: RRIRRRPPRLPRPRPRPKNTPRP
Second: RRIRPRPPRLPRPRPRPCCVPRP
The “shrunken log2 fold change” value of the first is lower: -0.0507 for the first, 0.182 for the second.

RRIRLRPPRLPRPRPRPWGAPRP and RRIRYRPPRLPRPRPRPAHFPRP are within 0.2 log units of each other in “shrunken log2 fold change” value: 0.261 for the first, 0.0784 for the second.

First: RRIRPRPPRLPRPRPRPESCPRP
Second: RRIRYRPPRLPRPRPRPCNHPRP
The “shrunken log2 fold change” value of the first is higher: 0.239 for the first, -0.213 for the second.

First: RRIRTRPPRLPRPRPRPCYFPRP
Second: RRIRCRPPRLPRPRPRPFPCPRP
The “shrunken log2 fold change” value of the first is lower: -0.616 for the first, -0.367 for the second.

Compared with RRIRYRPPRLPRPRPRPTAFPRP, RRIRKRPPRLPRPRPRPTDQPRP is higher in “shrunken log2 fold change” value: 0.0438 for the first, 0.536 for the second.

RRIRMRPPRLPRPRPRPMVDPRP and RRIRVRPPRLPRPRPRPTQIPRP are within 0.2 log units of each other in “shrunken log2 fold change” value: 0.0184 for the first, 0.149 for the second.

RRIRWRPPRLPRPRPRPQTIPRP and RRIRVRPPRLPRPRPRPTTDPRP are within 0.2 log units of each other in “shrunken log2 fold change” value: 0.106 for the first, -0.0625 for the second.

RRIRWRPPRLPRPRPRPHYFPRP and RRIRARPPRLPRPRPRPIGEPRP are within 0.2 log units of each other in “shrunken log2 fold change” value: -0.087 for the first, -0.0613 for the second.

RRIRGRPPRLPRPRPRPREYPRP was tested, and the “shrunken log2 fold change” value was 0.355.
